± gives the standard deviation.

The nature of the data set: protein stability index of a GFP-peptide fusion (GPS, HEK-293T) (PSI 1-6); higher = more stable.
Setting [1] is: treatment: DMSO, c terminus: a fixed tail appended.
Setting [2] is: treatment: MLN4924 1 uM, 8 h, c terminus: a fixed tail appended.
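Also: 24-mer peptide tiles fused after GFP, lentivirally expressed, FACS-sorted into six equal bins by GFP/DsRed ratio, decoded by Illumina sequencing, PSI is the read-weighted mean bin number.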

With YDLDKIIELNGGQPPLTYKRFQTL [CRY1], the protein stability index under setting [1] stood at 2.69 ± 0.38 and the protein stability index under setting [2] came to 2.77 ± 0.32.
In the same order, the values of YDPKENKWTRVASMSTRRLGVAVA [KLHL20] are 2.29 ± 0.27 and 2.38 ± 0.28.
For YEENEGAGPYLLNGSYLELSSDRV [ADAMTSL2], in that order: 3.88 ± 0.33 and 4.07 ± 0.46.
Consider YEKFKLYLTIILILISFTCRFLLN [TMEM120A], for which the protein stability index turned out to be 3.05 ± 0.21 under setting [1] and 2.91 ± 0.39 under setting [2].
For the sequence YGICREPVGLVMEYMETGSLEKLL [RIPK4], the protein stability index worked out at 2.29 ± 0.26 under setting [1] and 2.22 ± 0.4 under setting [2].
In the same order, the values of YGRIVEVLLMKDRETNKSRGFAFV [RBMX] are 2.9 ± 0.44 and 2.48 ± 0.59.
Take YGYVYFRQVRDKTLKRGYFQKSLV [DENND6A]: the protein stability index under setting [1] came out at 2.56 ± 0.46 and the protein stability index under setting [2] is 2.1 ± 0.16.
In the case of YINLLNYMDRFTVAGVLPDIEQFF [SPNS1], the protein stability index is 2.93 ± 0.63 under setting [1] and 2.84 ± 0.64 under setting [2].
For YKIVKPLWTSFIQSVSYSKLLSVI [P2RY14], in that order: 2.06 ± 0.16 and 2.36 ± 0.39.
For YKMFASRRKQRYWPFSMDCTGTEA [LOXL2], in that order: 2.3 ± 0.27 and 2.15 ± 0.33.
In the same order, the values of YLSKTYCVDATRETNRLGRLINHS [KMT5A] are 2.35 ± 0.046 and 2.62 ± 0.25.
Turning to YNRGEHPIFVNSPTLDAPGGRALV [SMAD6], the protein stability index reads like this: under setting [1], 3.13 ± 0.35; under setting [2], 3.25 ± 0.34.
For YNSPQFKKTMSTFHNLVSLNLNYN [FBXO39], the protein stability index by setting is: under setting [1], 2.25 ± 0.32; under setting [2], 2.12 ± 0.4.
For YPHCTGISQQDPESDSQGQGNGLF [ZC2HC1C], in that order: 3.82 ± 0.23 and 4.43 ± 0.48.
In the same order, the values of YQNSIDDRLLVERIFAQYMVPHNL [PDS5B] are 2.21 ± 0.55 and 2.46 ± 0.79.
For YSALREESAKDWETSPLPGMLAPA [PPFIA4], in that order: 4.26 ± 0.23 and 4.04 ± 0.21.
As to YSLRNKEFKSALCKIVRRTISLL [OR10K2], the protein stability index is 2.96 ± 0.64 (treatment: DMSO, c terminus: native) and 2.93 ± 0.21 (treatment: MLN4924 1 uM, 8 h, c terminus: native).
Regarding YVQWSLPFIVFGATGLTSGLLSLL [SLC22A15], the protein stability index is 3.27 ± 0.45 under setting [1] and 2.94 ± 0.68 under setting [2].
For YVYKPVMNQTCCPQYTIRCRPLQF [ATE1], in that order: 2.65 ± 0.64 and 2.3 ± 0.33.

Source of the values: the supplement of paper PMC10567573.
